{"source": "paper doi:10.1101/2024.10.04.616715", "about": "(bioRxiv, 2024)", "molecular_target": "the molecule itself", "assay": "cryo-EM structure"}
{"protein": "human XPR1 (Xenotropic and Polytropic Retrovirus Receptor 1) (natural protein, UniProt Q9UBH6 1-696, looked up) MKFAEHLSAHITPEWRKQYIQYEAFKDMLYSAQDQAPSVEVTDEDTVKRYFAKFEEKFFQTCEKELAKINTFYSEKLAEAQRRFATLQNELQSSLDAQKESTGVTTLRQRRKPVFHLSHEERVQHRNIKDLKLAFSEFYLSLILLQNYQNLNFTGFRKILKKHDKILETSRGADWRVAHVEVAPFYTCKKINQLISETEAVVTNELEDGDRQKAMKRLRVPPLGAAQPAPAWTTFRVGLFCGIFIVLNITLVLAAVFKLETDRSIWPLIRIYRGGFLLIEFLFLLGINTYGWRQAGVNHVLIFELNPRSNLSHQHLFEIAGFLGILWCLSLLACFFAPISVIPTYVYPLALYGFMVFFLINPTKTFYYKSRFWLLKLLFRVFTAPFHKVGFADFWLADQLNSLSVILMDLEYMICFYSLELKWDESKGLLPNNSEESGICHKYTYGVRAIVQCIPAWLRFIQCLRRYRDTKRAFPHLVNAGKYSTTFFMVTFAALYSTHKERGHSDTMVFFYLWIVFYIISSCYTLIWDLKMDWGLFDKNAGENTFLREEIVYPQKAYYYCAIIEDVILRFAWTIQISITSTTLLPHSGDIIATVFAPLEVFRRFVWNFFRLENEHLNNCGEFRAVRDISVAPLNADDQTLLEQMMDQDDGVRNRQKNRSWKYNQSISLRRPRLASQSKARDTKVLIEDTDDEANT", "values": [{"measurement": "stoichiometry N", "value": 2}]}
